Values of other authors in publication PMC11678748.

Target: KCCYSL peptide (synthetic construct)

Kd: 295 nM
Substance: HER2 (from UniProt P04626)
